# Target: T1, recombinant human Hsp70 (human, UniProt P0DMV8 1-641)
# T1 construct: also called stress-inducible chaperone Hsp70
# Assay: other fluorescence titration
# Settings: both partners purified
# T1 sequence (P0DMV8 whole entry): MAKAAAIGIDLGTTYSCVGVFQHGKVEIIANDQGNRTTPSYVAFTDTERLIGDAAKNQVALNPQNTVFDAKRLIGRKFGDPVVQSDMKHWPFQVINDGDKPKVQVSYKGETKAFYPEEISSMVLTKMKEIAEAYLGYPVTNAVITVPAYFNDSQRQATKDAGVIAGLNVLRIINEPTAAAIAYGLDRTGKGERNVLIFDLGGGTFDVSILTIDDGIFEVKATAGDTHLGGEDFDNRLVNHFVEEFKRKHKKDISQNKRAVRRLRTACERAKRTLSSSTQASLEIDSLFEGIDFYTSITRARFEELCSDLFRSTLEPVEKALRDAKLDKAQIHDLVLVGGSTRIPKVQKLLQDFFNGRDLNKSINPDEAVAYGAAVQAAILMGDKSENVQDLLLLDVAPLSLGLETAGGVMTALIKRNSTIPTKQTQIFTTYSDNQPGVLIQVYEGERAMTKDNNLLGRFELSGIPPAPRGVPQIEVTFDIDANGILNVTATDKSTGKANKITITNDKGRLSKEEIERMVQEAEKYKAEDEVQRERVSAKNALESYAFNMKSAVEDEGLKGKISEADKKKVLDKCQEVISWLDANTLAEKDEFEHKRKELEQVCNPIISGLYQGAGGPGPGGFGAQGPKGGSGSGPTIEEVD
binder,measurement,value
NRLLLTG (also called NR peptide) [peptide NRLLLTG],IC50,11.5 ± 3.8 µM

# Reference: paper PMC4738285 (Scientific Reports, 2016)
